Bridges are numbered along the chain shown (N, C = ends).

Here are results for two molecules from patent publication US20110269113A1 (University of Pennsylvania, published 2011).

For assay [1], the target named is C5a receptor (C5aR) (human) (UniProt P21730). The experiment in a line: cell-based or functional assay.
The target of assay [2] is complement component C3 (native C3) (human, UniProt P01024 23-1663). Nature of the assay: cell-based or functional assay.
complement component C3 (native C3), sequence (P01024 23-1663 limits assumed): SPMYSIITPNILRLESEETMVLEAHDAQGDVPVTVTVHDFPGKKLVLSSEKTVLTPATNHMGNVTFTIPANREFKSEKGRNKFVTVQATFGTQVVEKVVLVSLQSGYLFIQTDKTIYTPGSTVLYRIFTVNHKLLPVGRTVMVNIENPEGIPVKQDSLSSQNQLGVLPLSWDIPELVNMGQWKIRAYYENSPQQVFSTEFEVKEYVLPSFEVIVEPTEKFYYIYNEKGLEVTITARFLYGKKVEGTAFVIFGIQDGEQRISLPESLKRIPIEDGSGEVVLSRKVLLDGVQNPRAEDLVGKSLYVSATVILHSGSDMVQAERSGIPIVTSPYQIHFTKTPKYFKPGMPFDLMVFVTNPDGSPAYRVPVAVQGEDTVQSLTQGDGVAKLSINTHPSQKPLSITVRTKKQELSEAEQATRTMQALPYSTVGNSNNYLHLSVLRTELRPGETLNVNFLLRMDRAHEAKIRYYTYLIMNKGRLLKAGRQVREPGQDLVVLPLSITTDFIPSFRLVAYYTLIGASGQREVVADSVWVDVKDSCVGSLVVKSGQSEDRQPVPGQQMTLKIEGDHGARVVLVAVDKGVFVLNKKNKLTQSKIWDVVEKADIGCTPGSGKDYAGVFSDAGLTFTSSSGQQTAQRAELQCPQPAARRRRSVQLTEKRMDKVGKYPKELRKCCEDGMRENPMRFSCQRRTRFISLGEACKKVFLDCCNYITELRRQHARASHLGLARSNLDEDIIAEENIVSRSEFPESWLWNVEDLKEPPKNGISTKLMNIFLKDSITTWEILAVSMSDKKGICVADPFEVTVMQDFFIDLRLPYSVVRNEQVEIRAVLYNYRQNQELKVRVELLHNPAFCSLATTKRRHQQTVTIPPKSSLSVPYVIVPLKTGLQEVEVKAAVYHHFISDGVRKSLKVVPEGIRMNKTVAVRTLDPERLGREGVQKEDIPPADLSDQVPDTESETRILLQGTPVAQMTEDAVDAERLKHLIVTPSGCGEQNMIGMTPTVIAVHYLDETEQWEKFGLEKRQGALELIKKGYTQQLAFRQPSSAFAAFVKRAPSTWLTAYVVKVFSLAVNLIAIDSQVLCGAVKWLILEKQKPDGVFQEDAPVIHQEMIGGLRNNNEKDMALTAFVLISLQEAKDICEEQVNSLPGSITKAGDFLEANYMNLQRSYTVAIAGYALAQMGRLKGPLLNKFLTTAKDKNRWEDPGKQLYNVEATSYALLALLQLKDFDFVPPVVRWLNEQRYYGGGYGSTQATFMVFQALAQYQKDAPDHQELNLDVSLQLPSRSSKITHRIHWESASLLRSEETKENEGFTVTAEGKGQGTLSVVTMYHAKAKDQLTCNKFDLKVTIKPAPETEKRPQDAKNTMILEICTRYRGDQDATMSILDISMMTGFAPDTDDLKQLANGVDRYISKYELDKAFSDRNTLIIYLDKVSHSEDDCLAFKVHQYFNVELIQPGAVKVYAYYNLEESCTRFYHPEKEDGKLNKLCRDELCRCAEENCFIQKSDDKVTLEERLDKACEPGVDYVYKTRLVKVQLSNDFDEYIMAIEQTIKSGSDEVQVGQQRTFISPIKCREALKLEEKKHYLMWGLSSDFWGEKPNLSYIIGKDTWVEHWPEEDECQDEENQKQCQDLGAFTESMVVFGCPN

C5a receptor (C5aR) (human), sequence (P21730 whole entry): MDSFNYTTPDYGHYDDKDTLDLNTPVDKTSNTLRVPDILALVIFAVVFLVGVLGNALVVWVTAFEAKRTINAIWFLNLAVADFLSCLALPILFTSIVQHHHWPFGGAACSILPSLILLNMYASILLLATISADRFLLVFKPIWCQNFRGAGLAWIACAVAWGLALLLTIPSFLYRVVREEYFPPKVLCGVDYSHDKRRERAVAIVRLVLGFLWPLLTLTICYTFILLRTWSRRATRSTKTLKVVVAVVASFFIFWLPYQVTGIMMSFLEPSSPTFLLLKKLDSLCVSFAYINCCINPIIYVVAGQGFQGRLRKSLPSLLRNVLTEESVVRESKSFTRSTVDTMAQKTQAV

In assay [1], “small cyclic hexapeptide (AcF-[OPdChaWR]), selective C5aR antagonist” returned a TF mRNA expression in PMNs (real time RT-PCR) after C5aR antagonism (fold decrease) of 2.14; a modified prothrombin time (mPT) of PMN supernatants; healthy serum preincubated with filter fibers, with C5aR antagonist of 29.1 s; a modified prothrombin time (mPT) of PMN supernatants; predialysis ESRD serum preincubated with filter fibers, with C5aR antagonist of 26.1 s; a modified prothrombin time (mPT) of supernatants of PMNs preincubated with C5aR antagonist (10 µM-30 min) of 31.6 s.

B1: Compstatin, a 13-residue cyclic peptide (Ac-I[CVWQDWGAHRTC]TNH2) (peptide)
peptide: Ac-ICVWQDWGAHRTCT-NH2
modifications: disulfide 2-13
SMILES: CC[C@H](C)[C@H](NC(C)=O)C(=O)N[C@H]1CSSC[C@@H](C(=O)N[C@H](C(N)=O)[C@@H](C)O)NC(=O)[C@H]([C@@H](C)O)NC(=O)[C@H](CCCNC(=N)N)NC(=O)[C@H](Cc2c[nH]cn2)NC(=O)[C@H](C)NC(=O)CNC(=O)[C@H](Cc2c[nH]c3ccccc23)NC(=O)[C@H](CC(=O)O)NC(=O)[C@H](CCC(N)=O)NC(=O)[C@H](Cc2c[nH]c3ccccc23)NC(=O)[C@H](C(C)C)NC1=O
As to B1, in assay [2], the “TF mRNA expression in PMNs (real time RT-PCR) after Compstatin addition” value was 2.79 fold decrease and the “intracellular TF protein in PMNs, MFI fold expression (flow cytometry); fiber-activated healthy serum blocked with Compstatin” value came to 1.01 MFI fold expression.
